± gives the uncertainty stated by the source.
Assay: self-splicing fitness, log relative to wild type (ln ratio); higher = more splicing; Tetrahymena group I intron in knt gene, E. coli kanamycin selection, DiMSum; sequences stand for … in CUCUCU…GGAGGGAAAAGUUAUCAGGCAUGCACCUGGUAGCUAGUCUUUAAACCAAUAGAUUGCAUCGGUUUAAAAGGCAAGACCGUCAAAUUGCGGGAAAGGGGUCAACAGCCGUUCAGUACCAAGUCUCAGGGGAAACUUUGAGAUGGCCUUGCAAAGGGUAUGGUAAUAAGCUGACGGACAUGGUCCUAACCACGCAGCCAAGUCCUAAGUCAACAGAUCUUCUGUUGAUAUGGAUGCAGUUCACAGACUAAAUGUCGGUCGGGGAAGAUGUAUUCUUCUCAUAAGAUAUAGUCGGACCUCUCCUUAAUGGGAGCUAGCGGAUGAAGUGAUGCAACACUGGAGCCGCUGGGAACUAAUUUGUAUGCGAAAGUAUAUUGAUUAGUUUUGGAGUACUCGUGGUCG
Outline: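 Pooled colonies went to amplicon sequencing on an Illumina HiSeq 2500 after six replicate transformations. The plates were LB agar with 100 μg/mL carbenicillin, 50 μM IPTG and 0.2% rhamnose, with or without 25 μg/mL kanamycin, incubated overnight at 37°C or 30°C. The E. coli BL21(DE3) library had all eight P1ex-region intron nucleotides randomised, the intron placed in the knt kanamycin-resistance gene on pET-22b(+). DiMSum fitness is the error-weighted combination of replicate fold changes, kanamycin against none, normalised to wild type.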

Sequence | self-splicing fitness (ln) (30 °C) | self-splicing fitness (ln) (37 °C)
AGGUAGCAAUAUUACGUACG | -1.19 ± 0.015 | -0.48 ± 0.034
UCACAGCAAUAUUACGGGUG | -2.37 ± 0.09 | -1.67 ± 0.083
UAACAGCAAUAUUACGGGAC | -4.36 ± 0.17 | -1.89 ± 0.13
AGAUAGCAAUAUUACGAUCC | -1.68 ± 0.38 | -0.656 ± 0.39
UCUCAGCAAUAUUACGGGCA | -0.117 ± 0.073 | 0.575 ± 0.09
CUUCAGCAAUAUUACGUCAG | -0.735 ± 0.054 | -0.0836 ± 0.082
GCGAAGCAAUAUUACGCGCU | -1.85 ± 0.24 | -1.48 ± 0.4
GACAAGCAAUAUUACGGUUG | -2.3 ± 0.087 | -1.15 ± 0.11
CAGUAGCAAUAUUACGGUGG | -0.646 ± 0.06 | -0.131 ± 0.09
UGGAAGCAAUAUUACGCACG | -0.874 ± 0.12 | 0.34 ± 0.15
GUAAAGCAAUAUUACGUCAU | -0.555 ± 0.095 | -0.359 ± 0.096
CGCUAGCAAUAUUACGUCCG | -0.673 ± 0.092 | -0.4 ± 0.11
GCUAAGCAAUAUUACGGUUC | -1.72 ± 0.097 | -0.788 ± 0.11
ACGGAGCAAUAUUACGUUCC | -3.92 ± 0.47 | -2.01 ± 0.37
AGAAAGCAAUAUUACGACAU | 0.0508 ± 0.012 | 0.0923 ± 0.032
GCGGAGCAAUAUUACGAUUG | -3.31 ± 0.19 | -2.23 ± 0.24
CCGGAGCAAUAUUACGACGC | -3.23 ± 0.22 | -2.22 ± 0.32
CCGUAGCAAUAUUACGAGCU | -3.28 ± 0.22 | -3.35 ± 0.24
UGUGAGCAAUAUUACGCUUG | -3.29 ± 0.31 | -3.13 ± 0.47
UAUAAGCAAUAUUACGCCAU | -1.19 ± 0.23 | -2.11 ± 0.28
ACUAAGCAAUAUUACGGCCU | -0.171 ± 0.073 | -0.475 ± 0.087
AAAAAGCAAUAUUACGUCUC | -1.51 ± 0.078 | -0.62 ± 0.093
ACCAAGCAAUAUUACGUUUC | -4.28 ± 0.17 | -2.55 ± 0.14
UGCAAGCAAUAUUACGAGAU | -3.16 ± 0.24 | -3.02 ± 0.35

Sequence | self-splicing fitness (ln) (30 °C) | self-splicing fitness (ln) (37 °C)
AAUAAGCAAUAUUACGUAGA | -1.51 ± 0.11 | -0.998 ± 0.13
CAGUAGCAAUAUUACGCUAA | -2.26 ± 0.5 | -2.38 ± 0.32
GUUGAGCAAUAUUACGGCGU | -1.02 ± 0.13 | -0.302 ± 0.2
GAUCAGCAAUAUUACGUAGC | -0.999 ± 0.11 | -0.402 ± 0.12
CGGUAGCAAUAUUACGUGUC | -2.99 ± 0.34 | -2.5 ± 0.21
UAUCAGCAAUAUUACGGUCC | -2.18 ± 0.13 | -0.955 ± 0.19
UACUAGCAAUAUUACGAGAC | – | -1.56 ± 0.25
UCAAAGCAAUAUUACGUACG | -0.29 ± 0.067 | 0.0719 ± 0.077
CAGCAGCAAUAUUACGCGUA | -1.87 ± 0.083 | -1.05 ± 0.075
UCACAGCAAUAUUACGUUAG | -2.17 ± 0.077 | -1.49 ± 0.088
UGUUAGCAAUAUUACGGCGC | -2.65 ± 0.21 | -2.22 ± 0.27
UCCGAGCAAUAUUACGUAAG | -4.92 ± 0.38 | -2.13 ± 0.25
GGUCAGCAAUAUUACGCUUC | -1.12 ± 0.14 | -0.693 ± 0.24
ACCCAGCAAUAUUACGCCAU | -4.24 ± 0.23 | -1.88 ± 0.16
GCUUAGCAAUAUUACGGAUG | -1.71 ± 0.14 | -1.05 ± 0.13
UGGGAGCAAUAUUACGAAGU | – | -1.21 ± 0.3
CGCUAGCAAUAUUACGAGAA | – | -1.99 ± 0.29
AGUUAGCAAUAUUACGGAUC | -1.01 ± 0.13 | -1.09 ± 0.18
UUAGAGCAAUAUUACGAUUG | -1.95 ± 0.11 | -0.556 ± 0.14
UUCCAGCAAUAUUACGUUUA | -0.628 ± 0.083 | -0.59 ± 0.075
GCACAGCAAUAUUACGGAAU | -1.08 ± 0.076 | -0.95 ± 0.095
AGGUAGCAAUAUUACGGGAU | -2.755 ± 0.02 | -1.49 ± 0.034
AUGUAGCAAUAUUACGUUCA | -0.72 ± 0.075 | -0.276 ± 0.089
GACUAGCAAUAUUACGCGCC | -2.11 ± 0.32 | -0.0214 ± 0.39
